Data set [1] deals with bilateral flank tumors (HER2+). Description: In vivo tumor toxicity, tumor growth. The note with it: daily tail vein injections, 0.004 mg/kg Dox conc, 7 consecutive days. On the set-up: species or system mice. The protocol:
FIGS. 12 (A)-(D) illustrates comparison of HerDox and Dox on (A) tumor growth, (B) animal weight, (C) cardiac tissue, and (D) cardiac function.
To assess in vivo tumor toxicity, mice bearing 3-4 week bilateral flank tumors began receiving daily tail vein injections of Dox or HerDox (0.004 mg/kg with respect to Dox conc), HerPBK10 alone (at equivalent protein concentration to HerDox) or saline for 7 consecutive days.

Data set [2] in a line: HerDox stability in cell culture media, agarose gel. To be noted: serum-containing culture media, 37° C. Format: in vitro ADME. Here is the method: FIGS. 9 (A)-(C) illustrates targeting in a mixed cell culture. As illustrated in FIG. 10 (A), equal numbers of MDA-MB-435 and GFP(+) MDA-MB-231 cells were treated with Dox alone (0.5 uM), Her-Dox (containing 0.5 uM Dox), or HerPBK10 (1.2 ug/well, equivalent to HerPBK10 in HerDox). Wells were assayed for GFP fluorescence (to determine relative MDA-MB-231 number) and crystal violet staining (to determine total cell number). As illustrated in FIG. 9 (B), cell survival was determined by calculating the relative doubling time (DT) of experimental (exp) cells normalized by control (con) cells based on the crystal violet stains (total cells) and GFP fluorescence (MDA-MB-231 cells). The DT of MDA-MB-435 was determined by subtracting the DT of MDA-MB-231 from the total cell DT. Relative survival is shown for Day 2 of treatment. As illustrated in FIG. 9 (C), there is stability in cell culture. Aliquots of culture media containing HerDox (after incubation for the indicated times at 37° C.) were electrophoresed on a 2% agarose gel. HerDox incubated at 37° C. in HEPES-buffered saline, lacking serum, was processed in parallel. Dox fluorescence was visualized by UV excitation. Free Dox (Dox alone) is not retained in the gel whereas Dox incorporated in HerDox is. […]

Data set [3] is described as follows: HerDox stability under different storage temperatures. Format: physicochemical. To be noted: up to 12 days. The protocol:
FIGS. 6 (A)-(B) illustrates conjugate stability under different storage conditions, or in serum. As illustrated in FIG. 6 (A), HerDox was incubated up to 12 days at 4° C., RT, or 37° C. Samples were filtered through ultrafiltration spin columns every other day, and retentate and filtrate absorbances measured at 480 nm to determine relative Dox retention or release from conjugates, respectively. As illustrated in FIG. 6 (B), to mimic extended exposure to cells in culture medium, HerDox immobilized on Ni-NTA beads were incubated with bovine serum in DMEM for the indicated times at 37° C. before each sample was pelleted. Absorbance of supernatants (Filtrates) and bead eluates (Retentates) were measured at 480 nm to detect Dox. Relative Dox release or retention in serum is expressed as normalized to control (corresponding sample lacking serum). N=3 per time point.
The inventors tested the stability of HerDox over 12 days under different storage temperatures: 4° C., room temperature, or 37° C. On each day, a sample underwent ultrafiltration, then filtrates and retentates were measured to determine whether any Dox was released from the complex. […] The inventors also examined HerDox stability in serum-containing media at 37° C. […] Dox retention in the conjugate was also assessed by eluting the conjugate from the beads at each time point.

Data set [4] relates to MDA-MB-435 cells. As to the kind of experiment: Intracellular translocation in live cells, Dox fluorescence microscopy. The note with it: for intracellular location of Dox fluorescence: 0.5 uM. Format: cell-based. Here is the method: FIGS. 14 (A)-(B) illustrates comparison of HerDox and Dox intracellular translocation and targets in live cells. MDA-MB-435 cells were incubated with HerDox or free Dox (0.5 uM) at 37° C. Live (unfixed) cells were imaged by brightfield and fluorescence as depicted in […], or DIC and confocal fluorescence, as depicted in FIG. 14 (B), microscopy. Dox is indicated by red or magenta pseudocolor.
To understand the mechanism of HerDox mediated tumor cell death, the inventors examined HER2+ cells microscopically after treatment with HerDox, using Dox fluorescence to detect intracellular location. […] These dynamics, in addition to earlier targeting results, support a receptor-mediated HerDox entry mechanism. Even the intranuclear pattern of Dox when delivered by HerPBK10 differs from free Dox.

B1: HerDox: non-covalent complex of HerPBK10, a small double-stranded nucleic acid and intercalated Dox (conjugate)
chain: LPPRLKEMKSQESAAGSKLVLRCETSSEYSSLRFKWFKNGNELNRKNKPQNIKIQKKPGKSELRINKASLADSGEYMCKVISKLGNDSASANITIVESNEIITGMPASTEGAYVSSESPIRISVSTEGANTSSSTSTSTTGTSHLVKCAEKEKTFCVNGGECFMVKDLSNPSRYLCKCQPGFTGARCTENVPMKVQNQEKAEELYMRRAAMYEEGPPPSYESVVSAAPVAAALGSPFDAPLDPPFVPPRYLRPTGGRNSIRYSELAPLFDTTRVYLVDNKSTDVASLNYQNDHSNFLTTVIQNNDYSPGEASTQTINLDDRSHWGGDLKTILHTNMPNVNEFMFTNKFKARVMVSRLPTKDNQVELKYEWVEFTLPEGNYSETMTIDLMNNAIVEHYLKVGRQNGVLESDIGVKFDTRNFRLGFDPVTGLVMPGVYTNEAFHPDIILLPGCGVDFTHSRLSNLLGIRKRQPFQEGFRITYDDLEGGNIPALLDVDAYQASLKDDTEQGGGGAGGSNSSGSGAEENSNAAAAAMQPVEDMNDHAIRGDTFATRAEEKRAEAEAAAEAAAPAAQPEVEKPQKKPVIKPLTEDSKKRSYNLISNDSTFTQYRSWYLAYNYGDPQTGIRSWTLLCTPDVTCGSEQVYWSLPDMMQDPVTFRSTRQISNFPVVGAELLPVHSKSFYNDQAVYSQLIRQFTSLTHVFNRFPENQILARPPAPTITTVSENVPALTDHGTLPLRNSIGGVQRVTITDARRRTCPYVYKALGIVSPRVLSSRTFKKKKKKKKKK
modifications: left off: small tags and cut ends
notes: non-covalent complex of HerPBK10, a small double-stranded nucleic acid and intercalated Dox
For B1, in data set [1], the tumor growth entry is reported as “essentially prevented tumor growth”. Moreover, the “loss of Dox fluorescence from conjugate over time” value in data set [2] is “no such loss from HerDox is detectable”. This molecule also registered a product remaining intact in data set [3] (4° C.) of 100%. The “effect of storage on Dox incorporation” value in data set [3] (room temperature and 37° C.) was “enhance the incorporation of the drug”. In addition, the “intracellular location of Dox fluorescence” value was “mostly at the cell periphery” in data set [4] (0 min of uptake) and “accumulated in the nucleus” in data set [4] (60 min). The “intranuclear pattern of Dox” value in data set [4] (live cells, confocal) was “preferentially accumulates in nucleolar structures”.

The values are drawn from patent publication US10391180B2, “Self-assembling complex for targeting chemical agents to cells” (CEDARS-SINAI MEDICAL CENTER, priority 2007, dated 2019).
